From PMC8224933

Target: atypical chemokine receptor 3 (human (endogenous in hVSMCs)), P25106
Assay: proximity ligation; Duolink II PLA on hVSMCs fixed with 4% paraformaldehyde; two primary antibodies from differing species (1:500, 37°C, 105 min); control: omission of one primary antibody; PLA signals per cell counted; cells untreated or incubated 72 h with non-targeting, CXCR4, ACKR3 or AVPR1A siRNA
Details: remark: other sources report otherwise

atypical chemokine receptor 3 (human (endogenous in hVSMCs)), P25106, sequence (P25106 whole entry): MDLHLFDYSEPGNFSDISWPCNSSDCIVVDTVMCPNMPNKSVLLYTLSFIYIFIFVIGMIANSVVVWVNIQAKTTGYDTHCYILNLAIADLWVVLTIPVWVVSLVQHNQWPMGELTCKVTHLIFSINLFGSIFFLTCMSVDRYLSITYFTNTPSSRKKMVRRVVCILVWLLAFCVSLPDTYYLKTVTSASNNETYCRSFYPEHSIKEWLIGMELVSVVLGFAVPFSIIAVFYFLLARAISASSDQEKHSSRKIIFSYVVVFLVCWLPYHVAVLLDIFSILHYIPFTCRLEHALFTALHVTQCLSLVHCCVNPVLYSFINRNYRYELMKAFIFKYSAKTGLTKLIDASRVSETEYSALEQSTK

increase in PLA signals after AVPR1A siRNA, % of NT siRNA: 59%
B1: chemokine (C-X-C motif) receptor 4, P61073 1-352 (receptor)
chain: MEGISIYTSDNYTEEMGSGDYDSMKEPCFREENANFNKIFLPTIYSIIFLTGIVGNGLVILVMGYQKKLRSMTDKYRLHLSVADLLFVITLPFWAVDAVANWYFGNFLCKAVHVIYTVNLYSSVLILAFISLDRYLAIVHATNSQRPRKLLAEKVVYVGVWIPALLLTIPDFIFANVSEADDRYICDRFYPNDLWVVVFQFQHIMVGLILPGIVILSCYCIIISKLSHSKGHQKRKALKTTVILILAFFACWLPYYIGISIDSFILLEIIKQGCEFENTVHKWISITEALAFFHCCLNPILYAFLGAKFKTSAQHALTSVSRGSSLKILSKGKRGGHSSVSTESESSSFHSS
